Experimental data published in paper PMC6806390.

Biological target: Cytochrome-C, type III (Sigma C-2506) (UniProt P00004)
Experiment: SDS-PAGE of the methanol precipitate

Chain of Cytochrome-C, type III (Sigma C-2506), P00004 1-105 (natural protein; other documents disagree on this pair) (P00004 whole entry): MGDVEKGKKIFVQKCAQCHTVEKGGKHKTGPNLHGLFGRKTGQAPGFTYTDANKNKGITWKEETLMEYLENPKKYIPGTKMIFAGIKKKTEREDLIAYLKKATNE

Cytochrome-C, type III (Sigma C-2506), P00004 1-105 (natural protein; other documents disagree on this pair)
stoichiometry N: > 7
